Measured values taken from PMC10907715, “Soluble Frizzled-related proteins promote exosome-mediated Wnt re-secretion” (Communications Biology, 2024).

What was measured:
[1] = biological target: T1, FLAG-mClover-mouse Wnt5a (mouse, UniProt P22725 62-380); test: AUC; AUC-FDS (fluorescence detection) of the culture supernatant of fluorescent Wnt-expressing cells co-cultured with sFRP-expressing or parental HEK293 cells; FluoroBrite DMEM with 8% FBS, no detergent; 20 °C, 42,000 rpm; c(s) model of SEDFIT; conditions: partners not purified
T1 construct: Wnt5a, mouse; secreted into the culture supernatant; Ends of the tags are read from the order of the printed name; also called mClover-Wnt5a; mClover-tagged Wnt5a; source: HEK293 cells stably expressing it (CMV promoter), secreted into the culture supernatant (not purified); not shown: mClover, N-terminal, kept
T1 sequence (looked up): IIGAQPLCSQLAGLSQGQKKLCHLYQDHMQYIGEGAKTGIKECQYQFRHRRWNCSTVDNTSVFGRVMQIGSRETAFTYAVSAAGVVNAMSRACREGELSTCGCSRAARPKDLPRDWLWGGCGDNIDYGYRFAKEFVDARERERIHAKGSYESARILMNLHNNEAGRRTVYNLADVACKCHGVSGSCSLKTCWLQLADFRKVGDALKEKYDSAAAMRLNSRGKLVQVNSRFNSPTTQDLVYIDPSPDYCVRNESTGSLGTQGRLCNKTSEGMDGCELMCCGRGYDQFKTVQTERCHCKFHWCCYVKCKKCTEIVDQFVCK

[2] = biological target: T2, FLAG-GFP-tagged mouse Wnt3a (mouse, UniProt P27467 19-352); test: as above; conditions: partners not purified
T2 construct: Wnt3a, mouse; secreted into the culture supernatant; Ends of the tags are read from the order of the printed name; also called GFP-Wnt3a; FLAG-GFP-Wnt3a; source: L cells stably expressing it, secreted into the culture supernatant (not purified); not shown: GFP, N-terminal, kept
T2 sequence (P27467 19-352): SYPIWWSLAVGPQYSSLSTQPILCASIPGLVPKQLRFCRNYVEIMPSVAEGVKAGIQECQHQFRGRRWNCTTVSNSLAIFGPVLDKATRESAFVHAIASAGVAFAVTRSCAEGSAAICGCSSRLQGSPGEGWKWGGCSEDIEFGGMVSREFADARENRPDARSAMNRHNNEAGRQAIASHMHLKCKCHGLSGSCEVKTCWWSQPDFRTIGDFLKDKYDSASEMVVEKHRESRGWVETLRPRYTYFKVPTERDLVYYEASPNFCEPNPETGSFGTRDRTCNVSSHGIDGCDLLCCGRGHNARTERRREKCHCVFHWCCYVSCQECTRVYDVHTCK

B1: mouse sFRP2-FLAG (natural protein, UniProt P97299 25-295, looked up)
chain: LFLFGQPDFSYKRSNCKPIPANLQLCHGIEYQNMRLPNLLGHETMKEVLEQAGAWIPLVMKQCHPDTKKFLCSLFAPVCLDDLDETIQPCHSLCVQVKDRCAPVMSAFGFPWPDMLECDRFPQDNDLCIPLASSDHLLPATEEAPKVCEACKTKNEDDNDIMETLCKNDFALKIKVKEITYINRDTKIILETKSKTIYKLNGVSERDLKKSVLWLKDSLQCTCEEMNDINAPYLVMGQKQGGELVITSVKRWQKGQREFKRISRSIRKLQC
notes: sFRP2 (secreted Frizzled-related protein 2), mouse; secreted into the culture supernatant; End of the tag is read from the order of the printed name; also called secreted Frizzled-related protein 2; source: HEK293 cells stably expressing it, secreted into the culture supernatant (not purified)
- stoichiometry N [1]: 1
- stoichiometry N [2]: 1
